Data published in patent US20190048055A1.

Target: CD38 molecules expressed on Daudi human B-cell lymphoma cells (human) (UniProt P28907)
Assay: cell-based or functional assay

Q: How did the ADCC of human PBMCs against Daudi cells, dose response of anti-CD38 Ab (0.1 nM to 50 nM); lowest antibody concentration with increased killing turn out when anti-CD38 Ab (daratumumab) (antibody) was run?
A: Its ADCC of human PBMCs against Daudi cells, dose response of anti-CD38 Ab (0.1 nM to 50 nM); lowest antibody concentration with increased killing is 0.1 nM.
